Experiment [1] deals with T1, human glucose-dependent insulinotropic polypeptide (GIP) receptor (human, UniProt P48546 22-466).
T1 construct: whole, on cells; Assayed as crude membranes of stably transfected CHO cells; also called hGIPR; human GIP receptor
T1 sequence (looked up): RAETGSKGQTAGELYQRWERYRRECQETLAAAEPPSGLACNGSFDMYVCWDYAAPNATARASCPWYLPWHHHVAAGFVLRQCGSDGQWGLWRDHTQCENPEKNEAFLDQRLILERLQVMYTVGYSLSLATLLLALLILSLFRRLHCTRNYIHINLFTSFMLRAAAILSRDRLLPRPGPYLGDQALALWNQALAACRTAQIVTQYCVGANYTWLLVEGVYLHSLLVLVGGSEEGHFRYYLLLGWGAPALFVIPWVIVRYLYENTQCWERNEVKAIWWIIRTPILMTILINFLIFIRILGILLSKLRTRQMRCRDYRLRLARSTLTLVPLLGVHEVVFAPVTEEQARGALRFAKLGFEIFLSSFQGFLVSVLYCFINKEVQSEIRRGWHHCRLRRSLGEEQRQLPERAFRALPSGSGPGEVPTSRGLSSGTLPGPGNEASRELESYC
Description: SPA, displacement of [125I]-GIP from hGIPR membranes, 0.1% bacitracin. For orientation: Loss of bound radioactivity is the signal in a displacement assay; it reports binding, not function.

Experiment [2] addresses T2, human GLP-1 receptor (human, UniProt P43220 24-463).
T2 construct: whole, on cells; Assayed as crude membranes of stably transfected HEK293 cells; also called hGLP1R; hGLP-1R
The experiment is described as follows: SPA, displacement of [125I]-GLP-1 from hGLP-1R membranes, 0.1% bacitracin. In short, it runs like this:
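Binding buffer: 25 mM HEPES pH 7.4, 2.5 mM CaCl₂, 1 mM MgCl₂, 0.1% bacitracin, 0.003% Tween-20, protease inhibitors without EDTA. Four-parameter nonlinear regression; Kᵢ given as geometric mean ± SEM, n = independent replicates run on different days.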

The target of experiment [3] is T3, human glucagon receptor (human, UniProt P47871 26-477).
T3 construct: whole, on cells; Assayed as crude membranes of stably transfected HEK293 cells; also called hGcgR; GcgR
T3 sequence (P47871 26-477): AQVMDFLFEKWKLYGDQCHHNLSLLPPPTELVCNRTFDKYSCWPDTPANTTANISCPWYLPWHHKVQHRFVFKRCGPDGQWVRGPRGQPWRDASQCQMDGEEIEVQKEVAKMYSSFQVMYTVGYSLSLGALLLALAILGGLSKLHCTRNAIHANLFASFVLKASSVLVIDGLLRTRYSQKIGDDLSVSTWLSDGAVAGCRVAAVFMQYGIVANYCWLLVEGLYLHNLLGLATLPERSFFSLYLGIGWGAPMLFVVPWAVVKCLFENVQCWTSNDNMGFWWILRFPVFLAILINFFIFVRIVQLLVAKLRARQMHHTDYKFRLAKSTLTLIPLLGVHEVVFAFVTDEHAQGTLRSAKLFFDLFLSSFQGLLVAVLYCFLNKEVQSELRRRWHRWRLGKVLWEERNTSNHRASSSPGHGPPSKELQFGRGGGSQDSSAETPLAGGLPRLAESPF
Description: SPA, displacement of [125I]-Gcg from hGcgR membranes, 0.1% bacitracin. The essentials:
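Binding buffer: 25 mM HEPES pH 7.4, 2.5 mM CaCl₂, 1 mM MgCl₂, 0.003% Tween-20, protease inhibitors without EDTA. Counted by scintillation after 12 h incubation/settling at room temperature. Four-parameter nonlinear fit; Kᵢ given as geometric mean ± SEM of independent replicates run on different days.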

Starred links: 1 amine or outer side, 2 acyl side, 3 side chain; linkers in the order of their positions; H or OH if unused. Non-standard residues stand in square brackets, D forms with d. Groups on a side chain read outwards from the residue. No end group written: not given here. *: point of attachment. C20 diacid = O=C(O)CCCCCCCCCCCCCCCCCCC(=O)*; αMePhe(2-F) = C[C@](N)(Cc1ccccc1F)C(=O)O; γGlu = O=C(O)[C@H](CCC(=O)[*:2])N[*:1]; αMeF = C[C@](N)(Cc1ccccc1)C(=O)O; AEEA = NCCOCCOCC(=O)O; Aib = CC(C)(N)C(=O)O

What is called Ki is a measure of affinity in units of concentration, obtained from inhibition or displacement. Lower therefore signals higher affinity.

B1: Example 25 (peptide)
peptide: Y[Aib]EGT[αMeF]ISDYSIALDKK([AEEA-AEEA-γGlu-C20 diacid])HQ[Aib]EFVNWLLAGGPSSGAPPPS-NH2
modifications: N-terminus assumed
SMILES: CC[C@H](C)[C@H](NC(=O)[C@H](CO)NC(=O)[C@H](Cc1ccc(O)cc1)NC(=O)[C@H](CC(=O)O)NC(=O)[C@H](CO)NC(=O)[C@@H](NC(=O)[C@](C)(Cc1ccccc1)NC(=O)[C@@H](NC(=O)CNC(=O)[C@H](CCC(=O)O)NC(=O)C(C)(C)NC(=O)[C@@H](N)Cc1ccc(O)cc1)[C@@H](C)O)[C@@H](C)CC)C(=O)N[C@@H](C)C(=O)N[C@@H](CC(C)C)C(=O)N[C@@H](CC(=O)O)C(=O)N[C@@H](CCCCN)C(=O)N[C@@H](CCCCNC(=O)COCCOCCNC(=O)COCCOCCNC(=O)CC[C@H](NC(=O)CCCCCCCCCCCCCCCCCCC(=O)O)C(=O)O)C(=O)N[C@@H](Cc1c[nH]cn1)C(=O)N[C@@H](CCC(N)=O)C(=O)NC(C)(C)C(=O)N[C@@H](CCC(=O)O)C(=O)N[C@@H](Cc1ccccc1)C(=O)N[C@H](C(=O)N[C@@H](CC(N)=O)C(=O)N[C@@H](Cc1c[nH]c2ccccc12)C(=O)N[C@@H](CC(C)C)C(=O)N[C@@H](CC(C)C)C(=O)N[C@@H](C)C(=O)NCC(=O)NCC(=O)N1CCC[C@H]1C(=O)N[C@@H](CO)C(=O)N[C@@H](CO)C(=O)NCC(=O)N[C@@H](C)C(=O)N1CCC[C@H]1C(=O)N1CCC[C@H]1C(=O)N1CCC[C@H]1C(=O)N[C@@H](CO)C(N)=O)C(C)C
Regarding B1, the inhibition constant (Ki) worked out at 0.0417 nM in experiment [1], 15.8 nM in experiment [2] and 101 nM in experiment [3].

B2: Example 26 (peptide)
peptide: Y[Aib]EGT[αMePhe(2-F)]ISDYSIALDKK([AEEA-AEEA-γGlu-C20 diacid])HQ[Aib]EFVNWLLAGGPSSGAPPPS-NH2
modifications: N-terminus assumed
SMILES: CC[C@H](C)[C@H](NC(=O)[C@H](CO)NC(=O)[C@H](Cc1ccc(O)cc1)NC(=O)[C@H](CC(=O)O)NC(=O)[C@H](CO)NC(=O)[C@@H](NC(=O)[C@](C)(Cc1ccccc1F)NC(=O)[C@@H](NC(=O)CNC(=O)[C@H](CCC(=O)O)NC(=O)C(C)(C)NC(=O)[C@@H](N)Cc1ccc(O)cc1)[C@@H](C)O)[C@@H](C)CC)C(=O)N[C@@H](C)C(=O)N[C@@H](CC(C)C)C(=O)N[C@@H](CC(=O)O)C(=O)N[C@@H](CCCCN)C(=O)N[C@@H](CCCCNC(=O)COCCOCCNC(=O)COCCOCCNC(=O)CC[C@H](NC(=O)CCCCCCCCCCCCCCCCCCC(=O)O)C(=O)O)C(=O)N[C@@H](Cc1c[nH]cn1)C(=O)N[C@@H](CCC(N)=O)C(=O)NC(C)(C)C(=O)N[C@@H](CCC(=O)O)C(=O)N[C@@H](Cc1ccccc1)C(=O)N[C@H](C(=O)N[C@@H](CC(N)=O)C(=O)N[C@@H](Cc1c[nH]c2ccccc12)C(=O)N[C@@H](CC(C)C)C(=O)N[C@@H](CC(C)C)C(=O)N[C@@H](C)C(=O)NCC(=O)NCC(=O)N1CCC[C@H]1C(=O)N[C@@H](CO)C(=O)N[C@@H](CO)C(=O)NCC(=O)N[C@@H](C)C(=O)N1CCC[C@H]1C(=O)N1CCC[C@H]1C(=O)N1CCC[C@H]1C(=O)N[C@@H](CO)C(N)=O)C(C)C
Turning to B2, the Ki in experiment [1] worked out at 0.045 nM; in experiment [2], 16.5 nM; in experiment [3], 74.1 nM.

For the origin of these results see patent publication US20210032299A1 (Eli Lilly, published 2021).
